{"source": "the RNAGym collection of RNA variant scans (doi:10.7554/elife.80360)", "parents": {"B1": {"name": "Twister Ribozyme (parent)", "chain": "AACACUGCCAAUGCCGGUCCCAAGCCCGGAUAAAAGUGGAGGGGGCGG"}}}
{"variants_of": "B1", "assay": "self-cleavage, relative activity (ratio to wild type); higher = more cleavage; co-transcriptional"}
{"variant": "AACACUGCCAAUGGCGGUCCCAAGCCCGGAUAAAAUUGGAGGGGGCGG", "note": "[C14G G36U]", "self-cleavage": 0.0782}
{"variant": "AACACUGCCAAUGGCGGUCCCAAGCCCGGAUAAAAGUCGAGGGGGCGG", "note": "[C14G G38C]", "self-cleavage": 0.159}
{"variant": "AACACUGCCAAUGGCGGUCCCAAGCCCGGAUAAAAGUUGAGGGGGCGG", "note": "[C14G G38U]", "self-cleavage": 0.111}
{"variant": "AACACUGCCAAUGGCGGUCCCAAGCCCGGAUAAAAGUGGACGGGGCGG", "note": "[C14G G41C]", "self-cleavage": 0.0824}
{"variant": "AACACUGCCAAUGGCGGUCCCAAGCCCGGAUAAAAGUGGAUGGGGCGG", "note": "[C14G G41U]", "self-cleavage": 0.111}
{"variant": "AACACUGCCAAUGGCGGUCCCAAGCCCGGAUAAAAGUGGAGAGGGCGG", "note": "[C14G G42A]", "self-cleavage": 0.0786}
{"variant": "AACACUGCCAAUGGCGGUCCCAAGCCCGGAUAAAAGUGGAGUGGGCGG", "note": "[C14G G42U]", "self-cleavage": 0.0931}
{"variant": "AACACUGCCAAUGGCGGUCCCAAGCCCGGAUAAAAGUGGAGGCGGCGG", "note": "[C14G G43C]", "self-cleavage": 0.0465}
{"variant": "AACACUGCCAAUGGCGGUCCCAAGCCCGGAUAAAAGUGGAGGUGGCGG", "note": "[C14G G43U]", "self-cleavage": 0.08}
{"variant": "AACACUGCCAAUGGCGGUCCCAAGCCCGGAUAAAAGUGGAGGGCGCGG", "note": "[C14G G44C]", "self-cleavage": 0.129}
{"variant": "AACACUGCCAAUGGCGGUCCCAAGCCCGGAUAAAAGUGGAGGGGGCAG", "note": "[C14G G47A]", "self-cleavage": 0.0923}
{"variant": "AACACUGCCAAUGGCGGUCCCAAGCCCGGAUAAAAGUGGAGGGGGCGU", "note": "[C14G G48U]", "self-cleavage": 0.128}
{"variant": "AACACUGCCAAUGGCGGUCCCAAGCCCGGAUAAAAGGGGAGGGGGCGG", "note": "[C14G U37G]", "self-cleavage": 0.0706}
{"variant": "AACACUGCCAAUGUCGGUCCCCAGCCCGGAUAAAAGUGGAGGGGGCGG", "note": "[C14U A22C]", "self-cleavage": 1.15}
{"variant": "AACACUGCCAAUGUCGGUCCCGAGCCCGGAUAAAAGUGGAGGGGGCGG", "note": "[C14U A22G]", "self-cleavage": 0.319}
{"variant": "AACACUGCCAAUGUCGGUCCCACGCCCGGAUAAAAGUGGAGGGGGCGG", "note": "[C14U A23C]", "self-cleavage": 0.51}
{"variant": "AACACUGCCAAUGUCGGUCCCAGGCCCGGAUAAAAGUGGAGGGGGCGG", "note": "[C14U A23G]", "self-cleavage": 0.666}
{"variant": "AACACUGCCAAUGUCGGUCCCAUGCCCGGAUAAAAGUGGAGGGGGCGG", "note": "[C14U A23U]", "self-cleavage": 0.722}
{"variant": "AACACUGCCAAUGUCGGUCCCAAGCCCGGCUAAAAGUGGAGGGGGCGG", "note": "[C14U A30C]", "self-cleavage": 1.08}
{"variant": "AACACUGCCAAUGUCGGUCCCAAGCCCGGUUAAAAGUGGAGGGGGCGG", "note": "[C14U A30U]", "self-cleavage": 1.06}
{"variant": "AACACUGCCAAUGUCGGUCCCAAGCCCGGAUCAAAGUGGAGGGGGCGG", "note": "[C14U A32C]", "self-cleavage": 1.03}
{"variant": "AACACUGCCAAUGUCGGUCCCAAGCCCGGAUGAAAGUGGAGGGGGCGG", "note": "[C14U A32G]", "self-cleavage": 1.07}
{"variant": "AACACUGCCAAUGUCGGUCCCAAGCCCGGAUAUAAGUGGAGGGGGCGG", "note": "[C14U A33U]", "self-cleavage": 1.07}
{"variant": "AACACUGCCAAUGUCGGUCCCAAGCCCGGAUAACAGUGGAGGGGGCGG", "note": "[C14U A34C]", "self-cleavage": 0.461}
{"variant": "AACACUGCCAAUGUCGGUCCCAAGCCCGGAUAAUAGUGGAGGGGGCGG", "note": "[C14U A34U]", "self-cleavage": 0.951}
{"variant": "AACACUGCCAAUGUCGGUCCCAAGCCCGGAUAAAAGUGGGGGGGGCGG", "note": "[C14U A40G]", "self-cleavage": 0.21}
{"variant": "AACACUGCCAAUGUGGGUCCCAAGCCCGGAUAAAAGUGGAGGGGGCGG", "note": "[C14U C15G]", "self-cleavage": 0.36}
{"variant": "AACACUGCCAAUGUCGGUGCCAAGCCCGGAUAAAAGUGGAGGGGGCGG", "note": "[C14U C19G]", "self-cleavage": 0.518}
{"variant": "AACACUGCCAAUGUCGGUCGCAAGCCCGGAUAAAAGUGGAGGGGGCGG", "note": "[C14U C20G]", "self-cleavage": 0.2}
{"variant": "AACACUGCCAAUGUCGGUCCAAAGCCCGGAUAAAAGUGGAGGGGGCGG", "note": "[C14U C21A]", "self-cleavage": 0.108}
{"variant": "AACACUGCCAAUGUCGGUCCUAAGCCCGGAUAAAAGUGGAGGGGGCGG", "note": "[C14U C21U]", "self-cleavage": 0.141}
{"variant": "AACACUGCCAAUGUCGGUCCCAAGGCCGGAUAAAAGUGGAGGGGGCGG", "note": "[C14U C25G]", "self-cleavage": 0.627}
{"variant": "AACACUGCCAAUGUCGGUCCCAAGCUCGGAUAAAAGUGGAGGGGGCGG", "note": "[C14U C26U]", "self-cleavage": 0.403}
{"variant": "AACACUGCCAAUGUCGGUCCCAAGCCGGGAUAAAAGUGGAGGGGGCGG", "note": "[C14U C27G]", "self-cleavage": 0.108}
{"variant": "AACACUGCCAAUGUCGGUCCCAAGCCCGGAUAAAAGUGGAGGGGGGGG", "note": "[C14U C46G]", "self-cleavage": 1.04}
{"variant": "AACACUGCCAAUGUCGGUCCCAAGCCCGGAUAAAAGUGGAGGGGGUGG", "note": "[C14U C46U]", "self-cleavage": 1.01}
{"variant": "AACACUGCCAAUGUCUGUCCCAAGCCCGGAUAAAAGUGGAGGGGGCGG", "note": "[C14U G16U]", "self-cleavage": 0.778}
{"variant": "AACACUGCCAAUGUCGCUCCCAAGCCCGGAUAAAAGUGGAGGGGGCGG", "note": "[C14U G17C]", "self-cleavage": 0.152}
{"variant": "AACACUGCCAAUGUCGUUCCCAAGCCCGGAUAAAAGUGGAGGGGGCGG", "note": "[C14U G17U]", "self-cleavage": 0.373}
{"variant": "AACACUGCCAAUGUCGGUCCCAAGCCCAGAUAAAAGUGGAGGGGGCGG", "note": "[C14U G28A]", "self-cleavage": 1.09}
{"variant": "AACACUGCCAAUGUCGGUCCCAAGCCCCGAUAAAAGUGGAGGGGGCGG", "note": "[C14U G28C]", "self-cleavage": 1.01}
{"variant": "AACACUGCCAAUGUCGGUCCCAAGCCCGAAUAAAAGUGGAGGGGGCGG", "note": "[C14U G29A]", "self-cleavage": 1.06}
{"variant": "AACACUGCCAAUGUCGGUCCCAAGCCCGUAUAAAAGUGGAGGGGGCGG", "note": "[C14U G29U]", "self-cleavage": 1.09}
{"variant": "AACACUGCCAAUGUCGGUCCCAAGCCCGGAUAAAACUGGAGGGGGCGG", "note": "[C14U G36C]", "self-cleavage": 0.464}
{"variant": "AACACUGCCAAUGUCGGUCCCAAGCCCGGAUAAAAUUGGAGGGGGCGG", "note": "[C14U G36U]", "self-cleavage": 0.421}
{"variant": "AACACUGCCAAUGUCGGUCCCAAGCCCGGAUAAAAGUAGAGGGGGCGG", "note": "[C14U G38A]", "self-cleavage": 1.02}
{"variant": "AACACUGCCAAUGUCGGUCCCAAGCCCGGAUAAAAGUCGAGGGGGCGG", "note": "[C14U G38C]", "self-cleavage": 0.909}
{"variant": "AACACUGCCAAUGUCGGUCCCAAGCCCGGAUAAAAGUGAAGGGGGCGG", "note": "[C14U G39A]", "self-cleavage": 0.509}
{"variant": "AACACUGCCAAUGUCGGUCCCAAGCCCGGAUAAAAGUGCAGGGGGCGG", "note": "[C14U G39C]", "self-cleavage": 0.198}
{"variant": "AACACUGCCAAUGUCGGUCCCAAGCCCGGAUAAAAGUGUAGGGGGCGG", "note": "[C14U G39U]", "self-cleavage": 0.28}
{"variant": "AACACUGCCAAUGUCGGUCCCAAGCCCGGAUAAAAGUGGAAGGGGCGG", "note": "[C14U G41A]", "self-cleavage": 0.698}
{"variant": "AACACUGCCAAUGUCGGUCCCAAGCCCGGAUAAAAGUGGACGGGGCGG", "note": "[C14U G41C]", "self-cleavage": 0.343}
{"variant": "AACACUGCCAAUGUCGGUCCCAAGCCCGGAUAAAAGUGGAUGGGGCGG", "note": "[C14U G41U]", "self-cleavage": 0.719}
{"variant": "AACACUGCCAAUGUCGGUCCCAAGCCCGGAUAAAAGUGGAGCGGGCGG", "note": "[C14U G42C]", "self-cleavage": 0.59}
